# Experimental data taken from patent publication US20060257397A1 (CRUCELL HOLLAND B V, published 2006).
# T1: CD80 (UniProt P33681 35-288, limits assumed)
# T1 construct: whole, on cells; also called A431 cell line transfected with CD80
# T1 sequence (looked up): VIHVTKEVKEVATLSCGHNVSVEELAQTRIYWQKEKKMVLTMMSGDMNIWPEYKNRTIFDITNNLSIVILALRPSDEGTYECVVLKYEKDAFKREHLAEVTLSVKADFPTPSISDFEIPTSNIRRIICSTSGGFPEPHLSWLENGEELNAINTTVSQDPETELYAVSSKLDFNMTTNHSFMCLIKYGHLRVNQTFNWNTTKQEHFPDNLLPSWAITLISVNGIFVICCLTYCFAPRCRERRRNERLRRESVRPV
# T2: CD83 (UniProt Q01151 20-205, limits assumed)
# T2 construct: whole, on cells; also called A431 cell line transfected with CD83
# T2 sequence (looked up): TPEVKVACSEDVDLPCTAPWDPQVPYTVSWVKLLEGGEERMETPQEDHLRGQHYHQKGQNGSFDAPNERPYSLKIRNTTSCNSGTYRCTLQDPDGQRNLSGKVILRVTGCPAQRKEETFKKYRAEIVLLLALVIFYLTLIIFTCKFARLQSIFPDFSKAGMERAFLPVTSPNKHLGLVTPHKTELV
# T3: CD86 (UniProt P42081 24-329, limits assumed)
# T3 construct: whole, on cells; also called A431 cell line transfected with CD86
# T3 sequence (looked up): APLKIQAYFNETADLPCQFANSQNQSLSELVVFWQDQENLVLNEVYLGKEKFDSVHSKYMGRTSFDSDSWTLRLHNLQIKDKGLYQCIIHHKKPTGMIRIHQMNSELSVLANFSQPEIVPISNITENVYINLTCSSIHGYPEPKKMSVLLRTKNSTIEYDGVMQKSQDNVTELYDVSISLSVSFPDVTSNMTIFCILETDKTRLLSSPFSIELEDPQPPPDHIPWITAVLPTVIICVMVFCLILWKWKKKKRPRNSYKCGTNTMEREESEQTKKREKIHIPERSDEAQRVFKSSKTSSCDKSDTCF
# B1: scFv phage antibody SC02-115 (scFv)
# scFv: QVQLVQSGAEAKKPGASVKVSCKASGYTFTGYYMHWVRQAPGQGLEWMGWISAYNGNTNYAQKLQGRVTMTTDTSTSTAYMELRSLRSDDTAVYYCARSQMPSYFDYWGQGTLVTVSRGGGGSGGGGSGGGGSSELTQDPAVSVALGQTVRITCQGDSLRSYYASWYQQKPGQAPVLVIYGKNNRPSGIPDRFSGSSSGNTASLTITGAQAEDEADYYCNSRDSSGNHVVFGGGTKLTVLG
# Key:
# CD80 = biological target: T1, CD80; assay: flow cytometry, phage antibody on transfected A431 cells
# Method: (§1) In total, three selection rounds were performed and after both the second and third round, phage antibodies were tested for specific binding on a variety of cell-types, i.e., cultured DCs, PBLs, tonsil and synovial fluid cell suspensions, several cell lines including K562, U266, IM9, U937, THP, CEM, Fravel, HL60, Raji, RPMI8226, HepgII, HELA, HT29 and Jurkatt, a C1R cell line transfected with the molecule CD1a, and A431 cell lines transfected with the molecules CD80, CD83, and CD86. For staining of cells, 100 μl of the phage antibodies were blocked by adding 50 μl of PBS containing 4% milk powder for 15 minutes at room temperature. Next, 5×10⁵ cells in 50 μl of PBS containing 1% BSA were added to the blocked phage antibodies and the mixture obtained was incubated on ice for one hour. After that, the obtained mixture was washed three times with 200 μl PBS containing 1% BSA. To detect cell-bound phage antibodies, the cells were incubated with 20 μl of a 1:800 dilution of sheep anti-M13 polyclonal antibody for 20 minutes on ice. Thereafter, the cells were washed with PBS containing 1% BSA and incubated with 20 μl of a 1:700 dilution of PE-conjugated donkey anti-sheep polyclonal antibody for 20 minutes on ice.
# (§2) To visualize DCs the cells were washed again with PBS containing 1% BSA, stained with 10 μl 1:10 diluted FITC-conjugated anti-CD1a antibody (BD PharMingen) and suspended in 200 μl of PBS containing 1% BSA. Flow cytometric analyses were performed using a FACScan (Becton Dickinson).
# (§3) The twenty scFv phage antibodies derived from the selections described above bound exclusively to the cell line transfected with CD1a (see lower right panel of FIG. 2 for binding of the representative scFv phage antibody called SC02-113 to the CD1a-transfected cell line). […]
# CD83 = biological target: T2, CD83; assay: as above
# Method: as §1, §2, §3
# CD86 = biological target: T3, CD86; assay: as above
# Method: as §1, §2, §3
# human CD1a = biological target: T4, human CD1a (human, UniProt P06126 17-327); assay: flow cytometry, phage antibody on C1R cells transfected with CD1a
# T4 construct: whole, on cells; also called C1R-CD1a; CR1-CD1a
# T4 sequence (P06126 17-327): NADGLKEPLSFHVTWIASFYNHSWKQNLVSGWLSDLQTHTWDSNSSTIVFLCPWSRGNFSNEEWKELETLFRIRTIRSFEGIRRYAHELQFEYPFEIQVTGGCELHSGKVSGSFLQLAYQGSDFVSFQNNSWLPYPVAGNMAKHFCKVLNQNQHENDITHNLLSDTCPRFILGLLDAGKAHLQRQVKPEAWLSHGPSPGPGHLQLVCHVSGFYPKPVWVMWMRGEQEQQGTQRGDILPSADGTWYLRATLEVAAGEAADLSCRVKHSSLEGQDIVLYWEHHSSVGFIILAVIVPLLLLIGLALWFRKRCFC
# Method: In total, three selection rounds were performed and after both the second and third round, phage antibodies were tested for specific binding on a variety of cell-types, i.e., cultured DCs, PBLs, tonsil and synovial fluid cell suspensions, several cell lines including K562, U266, IM9, U937, THP, CEM, Fravel, HL60, Raji, RPMI8226, HepgII, HELA, HT29 and Jurkatt, a C1R cell line transfected with the molecule CD1a, and A431 cell lines transfected with the molecules CD80, CD83, and CD86. For staining of cells, 100 μl of the phage antibodies were blocked by adding 50 μl of PBS containing 4% milk powder for 15 minutes at room temperature. Next, 5×10⁵ cells in 50 μl of PBS containing 1% BSA were added to the blocked phage antibodies and the mixture obtained was incubated on ice for one hour. After that, the obtained mixture was washed three times with 200 μl PBS containing 1% BSA. To detect cell-bound phage antibodies, the cells were incubated with 20 μl of a 1:800 dilution of sheep anti-M13 polyclonal antibody for 20 minutes on ice. Thereafter, the cells were washed with PBS containing 1% BSA and incubated with 20 μl of a 1:700 dilution of PE-conjugated donkey anti-sheep polyclonal antibody for 20 minutes on ice. […]
binder,measurement,setting,value
B1,binding result,CD80,no binding
same,binding result,CD83,no binding
same,binding result,CD86,no binding
same,binding result,human CD1a,binds
